Experimental data published in patent publication US20240336907A1, “NOVEL ENDO-ß-N-ACETYLGLUCOSAMINIDASE” (priority 2020, published 2024).
Substitutions are numbered along the chain they refer to. Numbers in names are those of the source.

B1: Endo-Rp W278F/N172D/F307Y (protein)
chain: MPSLQLQPDDKLAPVSFALKSMNELRDWTPDEKIKFNVSSVALQPRVKNALKPQLLLTHDMAGGYKEDKNIQGNNYKDIYNIQYWHLADTFVYFSHERVSIPPVNWTNACHRNGVKCLGTFLVEGNNQMHEMEALLHGPPLLNNTDDPMRLWSPYYADQLVAIAKHYGFDGWLFDIECEFFPFPTNPKFKAEELAKFLHYFKEKLHNEIPGSQLIWYDSMTNEGEIHWQNQLTWKNELFFKNTDGIFLNYWWKKEYPEMARRVAEGIGRSGLEVYFGTDVFGRHTYGGGGFKSYKGVKTAYSAMTSSALYGMAWTYEHFEKSEFEKMDRLFWCGGKYSDYPPPPPKNPDDEKEVESDDSEDELMYGHKKGIADTVESIPVPGTDWFVTNFDRGFGNRFYYRGKRLLSQPWSHLSHQAILPNKSYRNPEIYPTDQNIKITSSLDCDHGAFLGGTSLIIKGQRFNHRESHDVETEISIPLYKLSLDASKGCSLRYIYRTLLMKDVKLTVACHFSLKTNDSVNFFKVWQPDENFSFEYDDGMRATVTTENSTESRCFLLRTTEEDTGENDWITKTINVPAVPEGSQLYITRLEVSVVLDTAGLVGLVNQVIACLGYISIIPTINSGIKTDSSRIIQDLFWKDQKYTKIGKESLDDIAQEEVHRYYGTLNWENTANVVNAWEEIDYYNVFYKESDDSATRIFLGTAFCNQFRVSGLDIILSKLPKIVIEAVNKEGYISSSGSIDLSLN
B2: Endo-Rp Y214F/F307Y/L306I (protein)
chain: B1 chain with D175N, Y217F, F281W, L309I
B3: Endo-Rp W278F/N172D/F307H (protein)
chain: B1 chain with Y310H
B4: Endo-Rp W278F/N172D/A310D (protein)
chain: B1 chain with Y310F, A313D

Legend:
(Fucα1,6)GlcNAc-mAb2 [1] = assay: One-pot method with various sugar chain donors, Endo-Rp N172H and Endo-Si D241M/Q311L; assay type: biochemical; details: donor 50 eq., Endo-Rp N172H 8 μg, Endo-Si D241M/Q311L 10 μg, 28° C., pH 7.5
Description: Transglycosylation activity was evaluated as follows. […] When SGP was used as a donor, the transglycosylation rate was calculated in accordance with the formula for computation described in Example 5.

(Fucα1,6)GlcNAc-mAb2 [2] = assay: One-pot method: Endo-Rp mutant enzymes (enzyme A) combined with Endo-Si D241Q, SGP donor; assay type: biochemical; details: Endo-Rp mutant enzyme 8 μg with Endo-Si D241Q 5 μg, SGP (50 eq.), 28° C., pH 7.5
Description: Using Endo-Rp, which is known to transfer a sugar chain from a sugar chain donor, SGP, to a GlcNAc derivative, as a representative of enzyme A, the property of enzyme A that can be used in combination with Endo-Si was investigated.
The transglycosylation activity on an antibody by the one-pot method was evaluated as follows. A 50 mM (sodium) phosphorate buffer (pH 7.5) solution (17 μL) containing (Fucα1,6)GlcNAc-mAb2 (0.5 mg), SGP (0.485 mg (50 eq.)), Endo-M N175Q (manufactured by Tokyo Kasei Kogyo Co., Ltd.) (2.5 mU) or each of various Endo-Rp mutant enzymes (8 μg) and Endo-Si D241Q (5 μg) was prepared and incubated at 28° C. A sample was taken from each of the reaction solutions at 2, 4, 6, 24, and 48 hours after initiation of the reaction and analyzed for protein by a fully automated electrophoresis system as mentioned above. In the chromatogram obtained, the transglycosylation rate was calculated in accordance with the formula for computation described in Example 5.

Row | Molecule | Transglycosylation rate (%) ((Fucα1,6)GlcNAc-mAb2 [1]; 2 h) | Transglycosylation rate (%) ((Fucα1,6)GlcNAc-mAb2 [1]; 4 h) | Transglycosylation rate (%) ((Fucα1,6)GlcNAc-mAb2 [1]; 6 h) | Transglycosylation rate (%) ((Fucα1,6)GlcNAc-mAb2 [1]; 24 h) | Transglycosylation rate (%) ((Fucα1,6)GlcNAc-mAb2 [1]; 48 h) | Change in transglycosylation rate (%) with time ((Fucα1,6)GlcNAc-mAb2 [2]; 2 h) [%] | Change in transglycosylation rate (%) with time ((Fucα1,6)GlcNAc-mAb2 [2]; 4 h) [%] | Change in transglycosylation rate (%) with time ((Fucα1,6)GlcNAc-mAb2 [2]; 6 h) [%] | Change in transglycosylation rate (%) with time ((Fucα1,6)GlcNAc-mAb2 [2]; 24 h) [%] | Change in transglycosylation rate (%) with time ((Fucα1,6)GlcNAc-mAb2 [2]; 48 h) [%]
1 | sialyl glycopeptide [SGP] | 3.8 | 5.0 | 11.2 | 53.5 | 89.7 |  |  |  |  | 
2 | B1 |  |  |  |  |  | 12.0 | 19.0 | 24.9 | 76.5 | 93.1
3 | B2 |  |  |  |  |  | 34.5 | 53.0 | 63.4 | 87.4 | 88.8
4 | B3 |  |  |  |  |  | 8.8 | 13.4 | 17.7 | 66.1 | 91.1
5 | B4 |  |  |  |  |  | 0.0 | 0.0 | 0.0 | 8.5 | 17.0
